Experimental data: patent US20220048967A1 (published 2022)
Changes are numbered by the printed parent chain. Numbered stars: 1 amine (or outer) side, 2 acyl side, 3 side chain; on linkers, the order of the positions; unused ones are H or OH. Square brackets hold non-standard residues; d marks the D form. Side chains are listed from the residue outwards. Ends that are not written are not given here. * marks the point of attachment. C20 diacid = O=C(O)CCCCCCCCCCCCCCCCCCC(=O)*; C18 diacid = O=C(O)CCCCCCCCCCCCCCCCC(=O)*; αMePhe(2-F) = C[C@](N)(Cc1ccccc1F)C(=O)O; γGlu = O=C(O)[C@H](CCC(=O)[*:2])N[*:1]; αMeF = C[C@](N)(Cc1ccccc1)C(=O)O; αMeP = C[C@@]1(C(=O)O)CCCN1; AEEA = NCCOCCOCC(=O)O; Aib = CC(C)(N)C(=O)O

T1: human gastric inhibitory peptide receptor (GIPR) (human, UniProt P48546 22-466)
T1 sequence (looked up): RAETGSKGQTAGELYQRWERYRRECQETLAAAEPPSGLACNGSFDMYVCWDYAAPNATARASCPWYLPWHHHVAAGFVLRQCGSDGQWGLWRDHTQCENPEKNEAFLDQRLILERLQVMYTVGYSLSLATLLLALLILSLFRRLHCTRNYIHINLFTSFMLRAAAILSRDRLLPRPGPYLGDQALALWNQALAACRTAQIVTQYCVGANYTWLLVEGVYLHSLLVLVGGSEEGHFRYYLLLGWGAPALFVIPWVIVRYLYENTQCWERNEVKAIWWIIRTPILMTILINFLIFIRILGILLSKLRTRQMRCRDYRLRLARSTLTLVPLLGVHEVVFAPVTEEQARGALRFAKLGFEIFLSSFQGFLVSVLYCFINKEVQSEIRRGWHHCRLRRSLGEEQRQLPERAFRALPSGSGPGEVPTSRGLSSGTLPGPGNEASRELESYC

B1: Example 174 (peptide)
peptide: YXEGTXTSDHSIXLDEKAQXTFIXYLIEGGPSSGAPPPS
modifications: Y-Aib-EGT-αMeF(2F)-TSDHSI-αMeF-LDEK((2-[2-(2-Amino-ethoxy)-ethoxy]-acetyl)2-CO-(CH2)18-CO2H)AQ-Aib-TFI-(D-Glu)-YLIEGGPSSGAPPPS-NH2
B2: Example 183 (peptide)
peptide: B1 peptide with H10L, T21E
modifications: Y-Aib-EGT-αMeF(2F)-TSDLSI-αMeF-LDEK((2-[2-(2-Amino-ethoxy)-ethoxy]-acetyl)2-(γ-Glu)-CO-(CH2)18-CO2H)AQ-Aib-EFI-(D-Glu)-YLIEGGPSSGAPPPS-NH2
B3: Example 191 (peptide)
peptide: B1 peptide with H10V, T21E
modifications: Y-Aib-EGT-αMeF(2F)-TSDVSI-αMeF-LDEK((2-[2-(2-Amino-ethoxy)-ethoxy]-acetyl)2-(γ-Glu)-CO-(CH2)18-CO2H)AQ-Aib-EFI-(D-Glu)-YLIEGGPSSGAPPPS-NH2
B4: Example 182 (peptide)
peptide: B1 peptide with H10X, T21E
modifications: Y-Aib-EGT-αMeF(2F)-TSD-4Pal-SI-αMeF-LDEK((2-[2-(2-Amino-ethoxy)-ethoxy]-acetyl)2-(γ-Glu)-CO-(CH2)18-CO2H)AQ-Aib-EFI-(D-Glu)-YLIEGGPSSGAPPPS-NH2
B5: Example 184 (peptide)
peptide: B1 peptide with H10X, T21E
modifications: Y-Aib-EGT-αMeF(2F)-TSD-(D-Tyr)-SI-αMeF-LDEK((2-[2-(2-Amino-ethoxy)-ethoxy]-acetyl)2-(γ-Glu)-CO-(CH2)18-CO2H)AQ-Aib-EFI-(D-Glu)-YLIEGGPSSGAPPPS-NH2
B6: Example 188 (peptide)
peptide: B1 peptide with H10X, T21E
modifications: Y-Aib-EGT-αMeF(2F)-TSD-3Pal-SI-αMeF-LDEK((2-[2-(2-Amino-ethoxy)-ethoxy]-acetyl)2-(γ-Glu)-CO-(CH2)18-CO2H)AQ-Aib-EFI-Aib-YLIEGGPSSGAPPPS-NH2
B7: Example 192 (peptide)
peptide: B1 peptide with H10A, T21E
modifications: Y-Aib-EGT-αMeF(2F)-TSDASI-αMeF-LDEK((2-[2-(2-Amino-ethoxy)-ethoxy]-acetyl)2-(γ-Glu)-CO-(CH2)18-CO2H)AQ-Aib-EFI-(D-Glu)-YLIEGGPSSGAPPPS-NH2
B8: Example 185 (peptide)
peptide: B1 peptide with H10X, T21E
modifications: Y-Aib-EGT-αMeF(2F)-TSD-(D-His)-SI-αMeF-LDEK((2-[2-(2-Amino-ethoxy)-ethoxy]-acetyl)2-(γ-Glu)-CO-(CH2)18-CO2H)AQ-Aib-EFI-(D-Glu)-YLIEGGPSSGAPPPS-NH2
B9: Example 177 (peptide)
peptide: B1 peptide with T21H
modifications: Y-Aib-EGT-αMeF(2F)-TSDHSI-αMeF-LDEK((2-[2-(2-Amino-ethoxy)-ethoxy]-acetyl)2-(γ-Glu)-CO-(CH2)16-CO2H)AQ-Aib-HFI-(D-Glu)-YLIEGGPSSGAPPPS-NH2
B10: Example 176 (peptide)
peptide: B1 peptide
modifications: Y-Aib-EGT-αMeF(2F)-TSDHSI-αMeF-LDEK((2-[2-(2-Amino-ethoxy)-ethoxy]-acetyl)2-(ϵK)-CO-(CH2)16-CO2H)AQ-Aib-TFI-(D-Glu)-YLIEGGPSSGAPPPS-NH2
B11: Example 190 (peptide)
peptide: B1 peptide with Y1H, H10X, T21E
modifications: H-Aib-EGT-αMeF(2F)-TSD-3Pal-SI-αMeF-LDEK((2-[2-(2-Amino-ethoxy)-ethoxy]-acetyl)2-(γ-Glu)-CO-(CH2)18-CO2H)AQ-Aib-EFI-(D-Glu)-YLIEGGPSSGAPPPS-NH2
B12: Example 175 (peptide)
peptide: B1 peptide
modifications: Y-Aib-EGT-αMeF(2F)-TSDHSI-αMeF-LDEK((2-[2-(2-Amino-ethoxy)-ethoxy]-acetyl)2-(ϵK)-CO-(CH2)18-CO2H)AQ-Aib-TFI-(D-Glu)-YLIEGGPSSGAPPPS-NH2
B13: Example 178 (peptide)
peptide: B1 peptide with T21H
modifications: Y-Aib-EGT-αMeF(2F)-TSDHSI-αMeF-LDEK((2-[2-(2-Amino-ethoxy)-ethoxy]-acetyl)2-(γ-Glu)-CO-(CH2)14-CO2H)AQ-Aib-HFI-(D-Glu)-YLIEGGPSSGAPPPS-NH2
B14: Example 187 (peptide)
peptide: B1 peptide with H10Q, T21E
modifications: Y-Aib-EGT-αMeF(2F)-TSDQSI-αMeF-LDEK((2-[2-(2-Amino-ethoxy)-ethoxy]-acetyl)2-(γ-Glu)-CO-(CH2)18-CO2H)AQ-Aib-EFI-(D-Glu)-YLIEGGPSSGAPPPS-NH2
B15: Example 181 (peptide)
peptide: B1 peptide with H10X, T21E
modifications: Y-Aib-EGT-αMeF(2F)-TSD-3Pal-SI-αMeF-LDEK((2-[2-(2-Amino-ethoxy)-ethoxy]-acetyl)2-(γ-Glu)-CO-(CH2)18-CO2H)AQ-Aib-EFI-(D-Glu)-YLIEGGPSSGAPPPS-NH2
B16: Example 189 (peptide)
peptide: B1 peptide with H10X, T21E
modifications: Y-Aib-EGT-αMeF(2F)-TSD-4Pal-SI-αMeF-LDEK((2-[2-(2-Amino-ethoxy)-ethoxy]-acetyl)2-(γ-Glu)-CO-(CH2)18-CO2H)AQ-Aib-EFI-Aib-YLIEGGPSSGAPPPS-NH2
B17: Example 180 (peptide)
peptide: Y[Aib]EGT[αMePhe(2-F)]TSDHSI[αMeF]LDEK([AEEA-AEEA-γGlu-C18 diacid])AQ[Aib]HFI[dE]YLIEGG-NH2
modifications: N-terminus assumed
SMILES: CC[C@H](C)[C@H](NC(=O)[C@H](CC(C)C)NC(=O)[C@H](Cc1ccc(O)cc1)NC(=O)[C@@H](CCC(=O)O)NC(=O)[C@@H](NC(=O)[C@H](Cc1ccccc1)NC(=O)[C@H](Cc1c[nH]cn1)NC(=O)C(C)(C)NC(=O)[C@H](CCC(N)=O)NC(=O)[C@H](C)NC(=O)[C@H](CCCCNC(=O)COCCOCCNC(=O)COCCOCCNC(=O)CC[C@H](NC(=O)CCCCCCCCCCCCCCCCC(=O)O)C(=O)O)NC(=O)[C@H](CCC(=O)O)NC(=O)[C@H](CC(=O)O)NC(=O)[C@H](CC(C)C)NC(=O)[C@](C)(Cc1ccccc1)NC(=O)[C@@H](NC(=O)[C@H](CO)NC(=O)[C@H](Cc1c[nH]cn1)NC(=O)[C@H](CC(=O)O)NC(=O)[C@H](CO)NC(=O)[C@@H](NC(=O)[C@](C)(Cc1ccccc1F)NC(=O)[C@@H](NC(=O)CNC(=O)[C@H](CCC(=O)O)NC(=O)C(C)(C)NC(=O)[C@@H](N)Cc1ccc(O)cc1)[C@@H](C)O)[C@@H](C)O)[C@@H](C)CC)[C@@H](C)CC)C(=O)N[C@@H](CCC(=O)O)C(=O)NCC(=O)NCC(N)=O
B18: Example 179 (peptide)
peptide: Y[Aib]EGT[αMePhe(2-F)]TSDHSI[αMeF]LDEK([AEEA-AEEA-γGlu-C18 diacid])AQ[Aib]HFI[dE]YLIEGGPSSG-NH2
modifications: N-terminus assumed
SMILES: CC[C@H](C)[C@H](NC(=O)[C@H](CC(C)C)NC(=O)[C@H](Cc1ccc(O)cc1)NC(=O)[C@@H](CCC(=O)O)NC(=O)[C@@H](NC(=O)[C@H](Cc1ccccc1)NC(=O)[C@H](Cc1c[nH]cn1)NC(=O)C(C)(C)NC(=O)[C@H](CCC(N)=O)NC(=O)[C@H](C)NC(=O)[C@H](CCCCNC(=O)COCCOCCNC(=O)COCCOCCNC(=O)CC[C@H](NC(=O)CCCCCCCCCCCCCCCCC(=O)O)C(=O)O)NC(=O)[C@H](CCC(=O)O)NC(=O)[C@H](CC(=O)O)NC(=O)[C@H](CC(C)C)NC(=O)[C@](C)(Cc1ccccc1)NC(=O)[C@@H](NC(=O)[C@H](CO)NC(=O)[C@H](Cc1c[nH]cn1)NC(=O)[C@H](CC(=O)O)NC(=O)[C@H](CO)NC(=O)[C@@H](NC(=O)[C@](C)(Cc1ccccc1F)NC(=O)[C@@H](NC(=O)CNC(=O)[C@H](CCC(=O)O)NC(=O)C(C)(C)NC(=O)[C@@H](N)Cc1ccc(O)cc1)[C@@H](C)O)[C@@H](C)O)[C@@H](C)CC)[C@@H](C)CC)C(=O)N[C@@H](CCC(=O)O)C(=O)NCC(=O)NCC(=O)N1CCC[C@H]1C(=O)N[C@@H](CO)C(=O)N[C@@H](CO)C(=O)NCC(N)=O
B19: Example 193 (peptide)
peptide: Y[αMeP]EGTFTSDYSILLDEK([AEEA-AEEA-γGlu-C20 diacid])AQQAFIEYLIEGGPSSGAPPPS-NH2
modifications: N-terminus assumed
SMILES: CC[C@H](C)[C@H](NC(=O)[C@H](CC(C)C)NC(=O)[C@H](Cc1ccc(O)cc1)NC(=O)[C@H](CCC(=O)O)NC(=O)[C@@H](NC(=O)[C@H](Cc1ccccc1)NC(=O)[C@H](C)NC(=O)[C@H](CCC(N)=O)NC(=O)[C@H](CCC(N)=O)NC(=O)[C@H](C)NC(=O)[C@H](CCCCNC(=O)COCCOCCNC(=O)COCCOCCNC(=O)CC[C@H](NC(=O)CCCCCCCCCCCCCCCCCCC(=O)O)C(=O)O)NC(=O)[C@H](CCC(=O)O)NC(=O)[C@H](CC(=O)O)NC(=O)[C@H](CC(C)C)NC(=O)[C@H](CC(C)C)NC(=O)[C@@H](NC(=O)[C@H](CO)NC(=O)[C@H](Cc1ccc(O)cc1)NC(=O)[C@H](CC(=O)O)NC(=O)[C@H](CO)NC(=O)[C@@H](NC(=O)[C@H](Cc1ccccc1)NC(=O)[C@@H](NC(=O)CNC(=O)[C@H](CCC(=O)O)NC(=O)[C@]1(C)CCCN1C(=O)[C@@H](N)Cc1ccc(O)cc1)[C@@H](C)O)[C@@H](C)O)[C@@H](C)CC)[C@@H](C)CC)C(=O)N[C@@H](CCC(=O)O)C(=O)NCC(=O)NCC(=O)N1CCC[C@H]1C(=O)N[C@@H](CO)C(=O)N[C@@H](CO)C(=O)NCC(=O)N[C@@H](C)C(=O)N1CCC[C@H]1C(=O)N1CCC[C@H]1C(=O)N1CCC[C@H]1C(=O)N[C@@H](CO)C(N)=O

Molecular target: T1, human gastric inhibitory peptide …
Assay: cell-based or functional assay

| Binder | hGIPR cAMP EC50 ratio | hGIPR cAMP Rel EC50 [nM] |
| --- | --- | --- |
| B1 | 0.483 | 0.217 |
| B2 | 3.1 | 0.0615 |
| B3 | 2.53 | 0.0645 |
| B4 | 4.37 | 0.0442 |
| B5 | 2.45 | 0.0477 |
| B6 | 0.969 | 0.121 |
| B7 | 2.83 | 0.0615 |
| B8 | 0.185 | 0.632 |
| B9 | 0.0749 | 1.4 |
| B10 | 0.201 | 0.523 |
| B11 | 0.158 | 0.738 |
| B12 | 1.19 | 0.0881 |
| B13 | 0.0341 | 3.08 |
| B14 | 4.61 | 0.0371 |
| B15 | 4.1 | 0.0459 |
| B16 | 2.41 | 0.0775 |
| B17 | 0.133 | 0.79 |
| B18 | 0.0575 | 1.83 |
| B19 | 0.538 | 0.336 |

Molecular target: human GLP-1 receptor (GLP-1R) (human, UniProt P43220 24-463)
Assay: cell-based or functional assay

| Binder | hGLP1R cAMP EC50 ratio | hGLP1R cAMP Rel EC50 [nM] |
| --- | --- | --- |
| B1 | 0.0968 | 0.472 |
| B2 | 0.843 | 0.0551 |
| B3 | 1.6 | 0.0356 |
| B4 | 0.873 | 0.0463 |
| B5 | 0.135 | 0.392 |
| B6 | 0.408 | 0.13 |
| B7 | 1.73 | 0.0289 |
| B8 | 0.00739 | 7.16 |
| B9 | 0.00673 | 6.79 |
| B10 | 0.0427 | 1.07 |
| B11 | 2.2 | 0.0241 |
| B12 | 0.0412 | 1.11 |
| B13 | 0.00349 | 13.1 |
| B14 | 0.702 | 0.0577 |
| B15 | 0.718 | 0.0592 |
| B16 | 0.668 | 0.0608 |
| B17 | 0.0212 | 2.16 |
| B18 | 0.0169 | 2.7 |
| B19 | 0.359 | 0.162 |
